Molecular target: YAP1 Y357F (UniProt P46937)

| Substance | YAP1 tyrosine phosphorylation (immunoprecipitation, immunoblot) |
| --- | --- |
| WT SRC (expressed from plasmid in 293T cells) | Under conditions where YES1 or SRC phosphorylated YAP1, we failed to detect phosphorylation of the YAP1 Y357F mutant |
| YES1 (Yamaguchi sarcoma viral oncogene homolog 1) | Under conditions where YES1 or SRC phosphorylated YAP1, we failed to detect phosphorylation of the YAP1 Y357F mutant |

From patent publication US20240398804
